Patent US20260374812 (published 2026)
Values belong to the binder of their own block, whether it stands above or below them. Where no end group is shown, it is not given here.

Legend:
TTR40-49 = molecular target: T1, TTR40-49 (human); experiment: ELISA
T1 chain: TWEPFASGKT

Biotin.TTR40-49 = molecular target: T2, Biotin.TTR40-49 (human, not fully specified (N-terminus)); experiment: ELISA
T2 chain: TWEPFASGKT

TTR34-54cyc [1] = molecular target: T3, TTR34-54cyc (human, cyclic, disulfide between the two Cys in the poly-Gly linkers); experiment: ELISA, ELISA-2
T3 sequence (chain, as listed by the source): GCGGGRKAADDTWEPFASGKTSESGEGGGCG

TTR34-54cyc [2] = molecular target: T3, TTR34-54cyc; experiment: ELISA, ELISA-1
mis.WT-TTR [3] = molecular target: mis.WT-TTR (human); experiment: ELISA, ELISA-2
mis.WT-TTR [4] = molecular target: mis.WT-TTR (human); experiment: ELISA, ELISA-1

binding result (TTR40-49): no binding
binding result (Biotin.TTR40-49): no binding
EC50 (TTR34-54cyc [1]): 0.66 nM
EC50 (TTR34-54cyc [2]): 0.027 nM
B1: NI-301.37F1 (antibody, V domains shown)
VH: QVQLQESGPGLVKPSETLSLTCSVSGGSIISRSSYWGWIRQPPGKGLEWIGGIYHSGNTYDNPSLKSRLTMSVDTSKNQFSLNLRSVTAADTAVYYCARIVPGGDAFDIWGQGTMVTVSS
VL: DIQMTQSPSSLSASVGDRVTIACRASQSVGTYLNWYQQKRGKAPKLLIFAASSLQSGVPSRFSGSGSGTDFTLTISSLQPEDFATYYCQQSYSSPPTFGQGTKVEIK

EC50 (mis.WT-TTR [3]): 8.3 nM
EC50 (mis.WT-TTR [4]): 0.338 nM
B2: NI-301.37F1 (antibody, V domains shown)
VH: B1 VH
VL: B1 VL
modifications: plasma-purified wild-type TTR, misfolded/aggregated at pH 3.0
